The supplement of paper PMC10567573

B1: ATL3 (parent)
chain: HFKKTKKMGGKDFSFRYQQELEEE
B2: ZNF24 (parent)
chain: YGETCFPKGRFERKRNPSRKKQHI

Variants of: B1
Test: protein stability index of a GFP-peptide fusion (GPS, HEK-293T) (PSI 1-6); higher = more stable
Conditions: c terminus: a fixed tail appended
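Note: lentivirally expressed fusions sorted by FACS into six bins by GFP to DsRed ratio, PSI derived from sequencing read proportions per bin multiplied by bin number.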

Protein stability index of substitutions, site by site:
K7: M 2.88; C 2.44
K6: V 2.46; M 2.51; S 1.81; R 1.99; N 2.15
M8: P 1.92; V 1.64; I 1.96; Y 1.99; W 2.35
G9: D 2.23; F 2.64; P 2.05; W 1.88; M 1.28; Q 1.96
G10: Y 1.79; P 1.3; K 2.56; L 2.07
K4: A 2.72; P 1.82; Q 1.75; C 2.55
Q18: L 2.64; D 4.65; K 2.09
F13: S 4.83; L 4.45; E 5.36
Q19: A 3.52; T 2.21; F 1.71; H 2.38
D12: S 2.65; T 2.24; I 2.43; R 1.96
E22: L 1.99; D 2.2; F 1.85; N 1.72
T5: M 2.57; G 1.35; K 2.22; W 3.29
L21: F 1.53; V 2.72; T 4.24; S 4
S14: P 3.12; Q 1.93; N 4.1; D 4.48; H 4.29; T 3.24
E23: T 2.55; D 2.42; M 2.61; Q 1.81; K 2.46
K3: T 1.04
K11: W 1.78; V 2.39
E24: T 2.39; G 2.63; F 2.01; P 3.69
Y17: M 4.21; T 2.38
E20: T 3.31; K 4.17; A 3.31; H 3.98
F15: C 3.07; I 1.42
F2: A 1.48; I 2.65; M 2.76; Q 3.05

Variants of: B2
Test: as above
Conditions: c terminus: a fixed tail appended

Protein stability index of substitutions, site by site:
Y1: A 4.36; C 3.45; D 4.25; E 4.46; F 1.9; G 4.63; H 4.11; I 3.74; K 3.75; L 3.9; M 3.99; N 4.4; P 4.1; Q 3.96; R 3.63; S 4.4; T 3.6; V 4.09; W 2.6
G2: A 2.34; C 2.1; D 4.33; E 4.37; F 2.51; H 2.15; I 1.76; K 3.21; L 2.58; M 3; N 3.65; P 2.89; Q 3.44; R 3.41; S 3.4; T 2.33; V 2.74; W 3.17; Y 2.58
E3: A 2.4; C 2.75; D 2.2; F 2.71; G 2; H 2.56; I 2.71; K 3.11; L 2.96; M 3.41; N 1.95; P 2.54; Q 3.2; R 2.9; S 2.04; T 2.62; V 3.66; W 2.26; Y 2.37
T4: A 2.96; C 2.12; D 3.14; E 3.24; F 2.1; G 2.33; H 2.98; I 3.04; K 2.13; L 2.45; M 2.47; N 2.37; P 1.89; R 3.37; S 3.43; V 3.38; W 1.02; Y 2.09
C5: A 3.17; D 2.67; E 3.15; F 3.83; G 2.17; H 3.63; I 3.16; K 4.01; L 3.05; M 2.25
